Publication PMC3714537 (Molecular cell, 2012)

Target: linear tetra-Ub (UniProt P0CG47 1-76; P0CG47 1-76; P0CG47 1-76; P0CG47 1-76)

B1: GFP-UBAN (EGFP fused to the CoZi domain of murine NEMO, amino acids 183-339) (domain or fragment, UniProt O88522 183-339, looked up)
chain: QLESEREVLQQQHSVQVDQLRMQNQSVEAALRMERQAASEEKRKLAQLQAAYHQLFQDYDSHIKSSKGMQLEDLRQQLQQAEEALVAKQELIDKLKEEAEQHKIVMETVPVLKAQADIYKADFQAERHAREKLVEKKEYLQEQLEQLQREFNKLKVG
Kd: 4.7 µM
